The record followed here is patent US20030211964, “Method of inhibiting pathogenicity of infectious agents” (Massachusetts Institute of Technology, published 2003).

Substitutions are numbered along the chain they refer to.

One may read the Kd as the equilibrium constant for the complex coming apart. High values mean a looser complex, low ones a tighter complex.

In series [1] the target is T1, Zα domain of ADAR1 (hZαADAR1) (Homo sapiens) (UniProt P55265).
T1 sequence: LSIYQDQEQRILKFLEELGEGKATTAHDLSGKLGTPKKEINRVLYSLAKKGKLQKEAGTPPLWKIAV
Description: SPR. Particulars: partial bromination (stabilises Z form); Z-DNA stabilised by bromination.

In series [2] the target is T2, ZαADAR1 Y177A Y177A (Homo sapiens) (UniProt P55265).
T2 sequence: T1 sequence with Y45A
Description: SPR. Particulars: partial bromination (stabilises Z form); Z-DNA stabilised by bromination.

The target of series [3] is T3, ZαADAR1 Y177F Y177F (Homo sapiens) (UniProt P55265).
T3 sequence: T1 sequence with Y45F
Description: SPR. Conditions: partial bromination (stabilises Z form); Z-DNA stabilised by bromination.

The target of series [4] is T4, Zβ domain of ADAR1 (hZβADAR1) (Homo sapiens, UniProt P55265 SEQ:1-62).
T4 sequence: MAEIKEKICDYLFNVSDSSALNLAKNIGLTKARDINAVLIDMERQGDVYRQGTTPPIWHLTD
Description: CD at 255 nm; no change over time.

The next series concerns the target T5, ZαADAR1 Q186A (Homo sapiens, UniProt P55265 SEQ:1-67, Q186A).
T5 sequence: T1 sequence with Q54A
Description: CD at 255 nm; rate comparable to wild type.

The next series concerns the target T6, ZαADAR1 E171A (Homo sapiens, UniProt P55265 SEQ:1-67, E171A).
T6 sequence: T1 sequence with E39A
Kind of series: CD at 255 nm; rate comparable to wild type.

Series [5] has as its target T7, Zα domain of ADAR1 (hZαADAR1) (Homo sapiens, UniProt P55265 SEQ:1-67).
T7 sequence: T1 sequence
Description: CD at 255 nm; rapid, complete B-to-Z conversion; 90 uM bp DNA, 30 uM protein.

Turning to partially brominated poly(dG-dC), the Kd in series [1] came to 40 nM; in series [2], 700 nM; in series [3], 350 nM.

B1: d(CG)6 (dsDNA)
DNA 1: CGCGCGCGCGCG
DNA 2: CGCGCGCGCGCG
On to B1, for which the binding result in series [4] is “no binding”; with ZαADAR1 Q186A, “binds”; in the series with ZαADAR1 E171A, “binds”; in series [5], “binds”.
